In paper PMC3589492, “Intersubunit Ionic Interactions Stabilize the Nucleoside Diphosphate Kinase of Mycobacterium tuberculosis” (PLoS ONE, 2013):

Assays:
[1] = target: the molecule itself; experiment: SEC; Superose 12 column, 50 mM Hepes pH 7.4, 150 mM sodium chloride, 0.4 mL/min, calibrated with molecular weight markers
[2] = target: the molecule itself; experiment: cell-based or functional assay

B1: Nucleoside diphosphate kinase of Mycobacterium tuberculosis, wild type (enzyme)
chain: MTERTLVLIKPDGIERQLIGEIISRIERKGLTIAALQLRTVSAELASQHYAEHEGKPFFGSLLEFITSGPVVAAIVEGTRAIAAVRQLAGGTDPVQAAAPGTIRGDFALETQFNLVHGSDSAESAQREIALWFPGA
notes: Nucleoside diphosphate kinase, Mycobacterium tuberculosis; No tag is mentioned; also called Mt-NDPK; wt Mt-NDPK
stoichiometry N [1]: 6
c1/2 of inactivation/unfolding in urea (10 µg/mL, 16 h) [2]: ~5.2 M
